Substrate: N[C@@H](CS)C(=O)O
Assay: purified protein
Assay type: biochemical, Escherichia coli
Settings: 50 mM Tris pH 7.6, room temperature, anaerobic, Fe(II)/DTT-reactivated [4Fe-4S] enzyme

B1: CyuA (Escherichia coli K-12) (protein)
chain: MFDSTLNPLWQRYILAVQEEVKPALGCTEPISLALAAAVAAAELEGPVERVEAWVSPNLMKNGLGVTVPGTGMVGLPIAAALGALGGNANAGLEVLKDATAQAIADAKALLAAGKVSVKIQEPCDEILFSRAKVWNGEKWACVTIVGGHTNIVHIETHDGVVFTQQACVAEGEQESPLTVLSRTTLAEILKFVNEVPFAAIRFILDSAKLNCALSQEGLSGKWGLHIGATLEKQCERGLLAKDLSSSIVIRTSAASDARMGGATLPAMSNSGSGNQGITATMPVVVVAEHFGADDERLARALMLSHLSAIYIHNQLPRLSALCAATTAAMGAAAGMAWLVDGRYETISMAISSMIGDVSGMICDGASNSCAMKVSTSASAAWKAVLMALDDTAVTGNEGIVAHDVEQSIANLCALASHSMQQTDRQIIEIMASKAR
notes: full ORF in pET16b, N-terminal His10 tag kept, about 47 kDa; expressed in E. coli SR011 (BL21(DE3) katG katE) with isc operon
- Km: 200 µM
